Tests used:
purified protein [1] = substrate: Nc1nc2c(c(=O)[nH]1)N1CN(c3ccc(C(=O)N[C@@H](CCC(=O)O)C(=O)O)cc3)CC1CN2; test: purified protein; settings: dUMP cofactor site in the catalytic pocket; varied: cofactor
purified protein [2] = substrate: O=c1ccn([C@H]2C[C@H](O)[C@@H](COP(=O)(O)O)O2)c(=O)[nH]1; test: purified protein; format: biochemical, Homo sapiens; settings: mTHF substrate site in the catalytic pocket

B1: human thymidylate synthase (hTS) (Homo sapiens) (protein)
chain: MPVAGSELPRRPLPPAAQERDAEPRPPHGELQYLGQIQHILRCGVRKDDRTGTGTLSVFGMQARYSLRDEFPLLTTKRVFWKGVLEELLWFIKGSTNAKELSSKGVKIWDANGSRDFLDSLGFSTREEGDLGPVYGFQWRHFGAEYRDMESDYSGQGVDQLQRVIDTIKTNPDDRRIIMCAWNPRDLPLMALPPCHALCQFYVVNSELSCQLYQRSGDMGLGVPFNIASYALLTYMIAHITGLKPGDFIHTLGDAHIYLNHIEPLKIQLQREPRPFPKLRILRKVEKIDDFKAEDFQIEGYNPHPTIKMEMAV
notes: His6-tag protein (non-cleavable N-terminal His6-tag)
B1 was tested, and the Km (purified protein [1]) was 5 µM and the Km (purified protein [2]) was 10 µM.

Source: publication PMC8123127, “Structural Bases for the Synergistic Inhibition of Human Thymidylate Synthase and Ovarian Cancer Cell Growth by Drug Combinations” (Cancers, 2021)
